# How the values were obtained:
# Recombinant CD73-His [1] = biological target: T1, Recombinant CD73-His (human, UniProt P21589); assay: cryo-EM structure
# Recombinant CD73-His [2] = biological target: T1, Recombinant CD73-His; assay: BLI
# cryo-EM structure = biological target: the molecule itself; assay: cryo-EM structure
Binder,stoichiometry N (Recombinant CD73-His [1]),Kd (Recombinant CD73-His [2]) [pM],binding result (cryo-EM structure)
"Mupadolimab (antibody, V domains shown) VH: QVQLVQSGAEVEKPGASVKVSCKASGYTFTSYWITWVRQAPGQGLEWMGDIYPGSGNTNYNEKFKTRVTITADKSTSTAYMELSSLRSEDTAVYYCAKEGGLTTEDYALDYWGQGTLVTVSS VL: EIVLTQSPATLSLSPGERATLSCRASKNVSTSGYSYMHWYQQKPGQAPRLLIYLASNLESGIPPRFSGSGYGTDFTLTINNIESEDAAYYFCQHSRELPFTFGQGTKVEIK",2 antibodies per CD73 homodimer,200,
"Recombinant CD73-His (enzyme, human, UniProt P21589 27-549, looked up) WELTILHTNDVHSRLEQTSEDSSKCVNASRCMGGVARLFTKVQQIRRAEPNVLLLDAGDQYQGTIWFTVYKGAEVAHFMNALRYDAMALGNHEFDNGVEGLIEPLLKEAKFPILSANIKAKGPLASQISGLYLPYKVLPVGDEVVGIVGYTSKETPFLSNPGTNLVFEDEITALQPEVDKLKTLNVNKIIALGHSGFEMDKLIAQKVRGVDVVVGGHSNTFLYTGNPPSKEVPAGKYPFIVTSDDGRKVPVVQAYAFGKYLGYLKIEFDERGNVISSHGNPILLNSSIPEDPSIKADINKWRIKLDNYSTQELGKTIVYLDGSSQSCRFRECNMGNLICDAMINNNLRHTDEMFWNHVSMCILNGGGIRSPIDERNNGTITWENLAAVLPFGGTFDLVQLKGSTLKKAFEHSVHRYGQSTGEFLQVGGIHVVYDLSRKPGDRVVKLDVLCTKCRVPSYDPLKMDEVYKVILPNFLANGGDGFQMIKDELLRHDSGDQDINVVSTYISKMKVIYPAVEGRIKFS",,,binds

# Source: paper PMC9723961 (Journal for Immunotherapy of Cancer, 2022)
